The target of experiment [1] is T1, ErbB-4 expressed on transfected cells (CHO cells; 32D derivatives D4 and D24) (UniProt Q15303 26-1308, limits assumed).
T1 construct: whole, on cells; also called surface-expressed ErbB-4
The experiment is described as follows: displacement of radiolabeled NRG-1β (5 ng/ml) from CHO cells expressing ErbB-4 by unlabeled ligand, 2 hours at 4 C. The source says:
(§1) Each data point represents the mean and range (bars) of two determinations.
(§2) To quantify the interaction, a ligand displacement analysis on ErbB-4-expressing CHO cells was undertaken.

Experiment [2] has as its target T1, ErbB-4 expressed on transfected cells …. Put plainly: displacement of radiolabeled NRG-1β (5 ng/ml) from CHO cells expressing ErbB-4 by unlabeled ligand; reference unlabeled NRG-1.
Text: as §1, §2

In experiment [3] the target is T2, ErbB-2 expressed on transfected cells (32D derivative D2; CHO cells co-transfected with ErbB-4) (UniProt P04626 23-1255, limits assumed).
T2 construct: whole, on cells
The experiment is described as follows: in vitro studies with engineered cell lines expressing all four ErbB proteins (FIGS. 3 to 5). On the procedure: (§3) The indicated derivative lines of 32D cells were tested for cell proliferation using the [3-(4,5-dimethylthiazol-2-yl)-2,5-diphenyl]tetrazolium bromide (MTT) assay. […] The MTT assay was performed 24 hours later.
(§4) The indicated derivatives of 32D cells were incubated for various time intervals in the absence of IL-3. […] For control, cells were incubated with medium conditioned by IL-3-producing cells (open triangles), or with no factor (open circles). The extent of cell proliferation was determined daily by using the colorimetric MTT assay. The data presented are the mean±S.D. of 4 determinations.

In experiment [4] the target is T3, ErbB-1 expressed on transfected cells (32D derivative D1; CHO cells co-transfected with ErbB-4) (UniProt P00533 25-1210, limits assumed).
T3 construct: whole, on cells; also called Epidermal Growth Factor Receptor
The description is as above. How it is done: as §3, §4

The target of experiment [5] is T4, ErbB-3 expressed on transfected cells (32D derivative D3; CHO cells co-transfected with ErbB-4) (UniProt P21860 20-1342, limits assumed).
T4 construct: whole, on cells
T4 sequence (P21860 20-1342 limits assumed): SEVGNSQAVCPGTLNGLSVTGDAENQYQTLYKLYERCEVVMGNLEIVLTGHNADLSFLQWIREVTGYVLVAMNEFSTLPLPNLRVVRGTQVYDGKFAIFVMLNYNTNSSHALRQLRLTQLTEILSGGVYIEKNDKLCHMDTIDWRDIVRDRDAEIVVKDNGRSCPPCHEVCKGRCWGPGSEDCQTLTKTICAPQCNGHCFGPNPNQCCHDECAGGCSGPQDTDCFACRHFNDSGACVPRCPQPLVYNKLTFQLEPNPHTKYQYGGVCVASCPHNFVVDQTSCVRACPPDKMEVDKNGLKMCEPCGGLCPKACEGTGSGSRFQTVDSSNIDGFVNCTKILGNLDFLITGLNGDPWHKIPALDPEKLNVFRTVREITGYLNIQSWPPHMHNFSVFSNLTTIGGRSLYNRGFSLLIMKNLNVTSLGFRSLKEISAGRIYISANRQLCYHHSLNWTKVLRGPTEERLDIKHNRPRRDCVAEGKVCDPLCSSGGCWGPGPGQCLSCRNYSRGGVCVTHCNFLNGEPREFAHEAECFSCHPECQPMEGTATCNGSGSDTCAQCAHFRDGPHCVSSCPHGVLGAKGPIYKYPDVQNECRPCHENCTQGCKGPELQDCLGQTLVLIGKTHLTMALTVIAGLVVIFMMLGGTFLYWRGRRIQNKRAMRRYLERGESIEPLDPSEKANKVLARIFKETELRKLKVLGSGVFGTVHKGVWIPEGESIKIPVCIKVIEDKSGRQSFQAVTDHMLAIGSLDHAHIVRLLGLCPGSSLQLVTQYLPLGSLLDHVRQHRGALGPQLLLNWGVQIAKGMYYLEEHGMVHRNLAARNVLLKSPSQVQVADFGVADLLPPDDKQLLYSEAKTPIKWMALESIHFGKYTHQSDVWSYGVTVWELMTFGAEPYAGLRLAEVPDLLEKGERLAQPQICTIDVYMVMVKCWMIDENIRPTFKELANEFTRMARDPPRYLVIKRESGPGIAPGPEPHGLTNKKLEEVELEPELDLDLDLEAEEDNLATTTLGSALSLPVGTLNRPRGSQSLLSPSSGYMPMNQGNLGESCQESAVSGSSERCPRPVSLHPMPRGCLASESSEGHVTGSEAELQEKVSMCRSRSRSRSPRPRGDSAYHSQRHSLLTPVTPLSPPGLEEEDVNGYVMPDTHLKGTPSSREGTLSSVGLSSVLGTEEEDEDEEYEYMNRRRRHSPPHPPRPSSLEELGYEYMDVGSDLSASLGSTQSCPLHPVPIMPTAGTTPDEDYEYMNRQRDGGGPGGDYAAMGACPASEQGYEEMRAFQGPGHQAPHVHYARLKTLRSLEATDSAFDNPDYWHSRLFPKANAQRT
The experiment is described as above. How it is done: as §3, §4

Ends that are not written are not given here.

T1 sequence (Q15303 26-1308 limits assumed): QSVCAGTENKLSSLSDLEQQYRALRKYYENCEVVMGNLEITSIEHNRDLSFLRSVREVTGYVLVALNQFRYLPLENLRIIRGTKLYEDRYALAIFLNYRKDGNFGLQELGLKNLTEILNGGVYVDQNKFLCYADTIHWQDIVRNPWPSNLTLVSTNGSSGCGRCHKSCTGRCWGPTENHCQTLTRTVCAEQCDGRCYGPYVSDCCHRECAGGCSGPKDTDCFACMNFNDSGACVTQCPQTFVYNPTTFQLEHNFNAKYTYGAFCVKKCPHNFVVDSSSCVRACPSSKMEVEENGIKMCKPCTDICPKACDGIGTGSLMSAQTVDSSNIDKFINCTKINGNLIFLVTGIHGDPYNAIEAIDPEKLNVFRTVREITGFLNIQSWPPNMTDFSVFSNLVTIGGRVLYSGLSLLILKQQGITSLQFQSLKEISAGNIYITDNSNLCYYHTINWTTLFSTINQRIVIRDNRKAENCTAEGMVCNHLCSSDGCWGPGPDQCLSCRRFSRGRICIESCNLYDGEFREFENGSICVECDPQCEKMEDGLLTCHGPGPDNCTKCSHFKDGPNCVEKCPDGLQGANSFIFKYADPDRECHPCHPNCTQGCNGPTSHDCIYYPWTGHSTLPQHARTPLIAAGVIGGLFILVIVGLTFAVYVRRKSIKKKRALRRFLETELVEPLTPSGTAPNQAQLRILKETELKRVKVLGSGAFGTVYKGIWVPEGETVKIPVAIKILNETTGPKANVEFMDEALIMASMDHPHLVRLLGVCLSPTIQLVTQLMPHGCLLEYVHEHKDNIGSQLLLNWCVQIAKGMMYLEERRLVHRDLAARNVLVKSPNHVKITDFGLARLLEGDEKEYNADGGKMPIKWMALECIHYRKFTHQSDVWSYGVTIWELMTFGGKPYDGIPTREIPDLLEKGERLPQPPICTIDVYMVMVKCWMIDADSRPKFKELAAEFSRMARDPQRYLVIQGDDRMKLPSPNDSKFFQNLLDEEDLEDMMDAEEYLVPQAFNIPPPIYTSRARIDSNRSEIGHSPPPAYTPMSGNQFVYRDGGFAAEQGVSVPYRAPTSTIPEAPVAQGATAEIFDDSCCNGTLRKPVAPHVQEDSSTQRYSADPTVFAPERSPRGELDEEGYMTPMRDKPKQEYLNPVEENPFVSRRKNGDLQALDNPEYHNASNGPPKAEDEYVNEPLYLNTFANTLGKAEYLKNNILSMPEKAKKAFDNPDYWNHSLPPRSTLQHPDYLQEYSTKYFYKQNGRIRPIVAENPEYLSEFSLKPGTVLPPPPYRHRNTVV

B1: synthetic refolded mouse EGF-like domain of NRG-4 (residues 4 to 50, SEQ ID NO:2) (ligand)
peptide: DHEQPCGPRHRSFCLNGGICYVIPTIPSPFCRCIENYTGARCEEVFL
modifications: disulfide (positions not given here); also: three disulfide bonds, pairing not given here
notes: Chemically synthesised, folded and fully oxidized (three predicted disulfide bonds); also called Neuregulin-4; the novel synthetic peptide
Take B1: in experiment [1], the Kd (as a rule, the free concentration of one partner at which half of the binding sites on the other are occupied at equilibrium, for simple one-to-one binding) is approximately 20 nM. For the same molecule, in experiment [2], the “fold lower binding affinity than NRG-1” value is approximately 8 fold. The binding result in experiment [3], in experiment [4] and in experiment [5] was “no binding” in each case.

The values are drawn from patent US20040121326A1 (YEDA RESEARCH AND DEVELOPMENT, published 2004).
